Measured values from patent US20130273567A1, “Screening Method for Candidate Agonist Compounds for Adiponectin Receptor I” (priority 2010, published 2013).

How the values were obtained:
PGC-1α (Ppargc1a) = test: Ppargc1a mRNA levels in skeletal muscle treated with adiponectin; type: in vivo, mice; conditions: control littermates; adiponectin 30 μg per 10 g body weight, 10 min
Procedure: (§1) Mouse full-length adiponectin was generated as described in the following documents (Nature Med. 8, 1288-1295 (2002); Nature Med. 7, 941-946 (2001); Nature 423, 762-769 (2003)).
(§2) Real-time PCR was carried out according to the method described in the following documents (Nature Med. 13, 332-339 2007); Nature 423, 762-769 (2003); J. Biol. Chem. 281, 8748-8755 (2006)). Total RNA was prepared from cells or tissues by using Trizol (Invitrogen) according to the manufacturer's instructions. Quantification of mRNA was conducted using a real-time PCR method (Nature 423, 762-769 (2003)) with slight modifications. The procedures used for immunoblotting are described in the following documents (Nature Med. 7, 941-946 (2001); J. Biol. Chem. 281, 26602-26614 (2006); J. Biol. Chem. 281, 8748-8755 (2006)). The livers or muscles were freeze-clamped in liquid nitrogen in situ (Nature Med. 7, 941-946 (2001); J. Biol. Chem. 281, 26602-26614 (2006); J. Biol. Chem. 281, 8748-8755 (2006)).

CaMKI, HDAC5 = test: Phosphorylation of CaMKI and HDAC5 in C2C12 myocytes (immunoblotting); type: cell-based, mouse; conditions: adiponectin 30 μg/ml, 0-20 min
Procedure: (§3) The mouse C2C12 myoblasts were grown in 90% Dulbecco's modified high glucose Eagle's medium containing 10% (v/v) fetal bovine serum. When the cells reached 80% confluent, the myoblasts were induced to differentiate into myocytes by replacing the medium with a low serum differentiation medium (98% Dulbecco's modified high glucose Eagle's medium, 2.5% (v/v) horse serum). The medium was changed daily. The C2C12 cells were transfected by using Pofectamine 2000 (Invitrogen) and following the manufacturer's instructions.

AMPK [1] = test: AMPK phosphorylation in vivo (skeletal muscle and liver, immunoblotting); parameters: species or system mice; conditions: adiponectin 30 μg per 10 g body weight, 10 min
Procedure: as §1, §2

mAdipoR1 = target: T1, mAdipoR1 (Mus musculus, UniProt Q91VH1); test: Xenopus oocytes injected with AdipoR1 cRNA, two-electrode voltage clamp recording; type: cell-based
T1 construct: expressed in transfected cells; host or cells: Xenopus oocytes (stage V to VII) injected with cRNA
T1 sequence (Q91VH1 1-375): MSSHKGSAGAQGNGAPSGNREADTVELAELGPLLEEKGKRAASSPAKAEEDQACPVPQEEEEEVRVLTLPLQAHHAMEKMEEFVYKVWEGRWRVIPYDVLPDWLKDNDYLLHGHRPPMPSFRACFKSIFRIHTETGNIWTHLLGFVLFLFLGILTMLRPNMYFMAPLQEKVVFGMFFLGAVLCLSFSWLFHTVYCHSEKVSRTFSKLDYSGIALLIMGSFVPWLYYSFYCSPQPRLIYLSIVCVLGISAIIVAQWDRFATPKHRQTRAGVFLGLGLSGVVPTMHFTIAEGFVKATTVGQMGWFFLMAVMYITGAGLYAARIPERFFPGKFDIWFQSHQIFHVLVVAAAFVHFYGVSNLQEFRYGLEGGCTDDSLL
Procedure: Stage V to VII oocytes were treated with 2 mg/ml of collagenase S-1 (Nitta gelatin) in calcium ion-free saline solution (82.5 mM NaCl, 2 mM KCl, 1 mM MgCl2, and 5 mM HEPES, pH 7.5) for 1 to 2 hr at room temperature. The resulting oocytes were then microinjected with 50 ng of cRNA for mAdipoR1. The cRNA was synthesized from linearized modified pSPUTK. The injected oocytes were incubated for 3 days at 18° C. in a bath solution (88 mM NaCl, 1 mM KCl, 0.3 mM Ca(NO3)2, 0.4 mM CaCl2, 0.8 mM MgSO4, 2.4 mM NaHCO3, 15 mM HEPES, pH 7.6) supplemented with 10 μg/ml of penicillin and streptomycin.
Whole cell currents were recorded with a two-electrode voltage clamp technique. Intracellular glass electrodes were filled with 3M KCl. Signals were amplified with an OC-725C amplifier (Warner Instruments), low-pass filtered at 50 Hz, and digitized at 1 kHz. A control bath solution contained 115 mM NaCl, 2.5 mM KCl, 1.8 mM CaCl2, and 10 mM HEPES. It was titrated to pH 7.2 with NaOH. A calcium ion free solution containing 1.8 mM BaCl2 instead of CaCl2 was used. The inward current was monitored at a holding potential of −80 mV. Calcium ion activated Cl^− current was monitored by applying 500-mscc depolarizing pulses of +100 mV and +50 mV from the holding potential of −80 mV. Adiponectin was supplied to the superfusing bath solution via a silicon tube connected to computer-driven solenoid valves. Data acquisition and analysis were carried out using Digidata 1322A and pCLAMP software.

AdipoR1 = target: T2, AdipoR1 (Mus musculus, UniProt Q91VH1); test: Calcium imaging in C2C12 myocytes (fura-2); type: cell-based; parameters: endogenous in cells; host or cells: mouse C2C12 myocytes (differentiated from myoblasts)
T2 sequence (Q91VH1 1-375): T1 sequence (Q91VH1 1-375)
Procedure: C212 myocytes cultured on glass base dishes (IWAKI) were treated with 2.5 μM fura-2/AM for 30 min. Fluorescence was measured with an Aquacosmos Calcium Imaging system (Hamamatsu Photonics). Ligands were delivered through the superfusing Ringer's solution (140 mM NaCl, 5.6 mM KCl, 5 mM HEPES, 2.0 mM sodium pyruvate, 1.25 mM KH2PO4, 2.0 mM CaCl2, 2.0 mM MgCl2, 9.4 mM D-glucose (pH 7.4)). For the calcium chelating experiment, EGTA solution (140 mM NaCl, 5.6 mM KCl, 5 mM HEPES, 2.0 mM sodium pyruvate, 1.25 mM KH2PO4, 2.0 mM MgCl2, 5.0 mM EGTA-2Na, 9.4 mM D-glucose (pH 7.4) was used for the bath solution. Fura-2 fluorescence ratios were calibrated to calcium ion signals.

CaMKI = CaMKI phosphorylation in skeletal muscle in vivo; parameters: species or system mice; conditions: adiponectin 30 μg per 10 g body weight, 5 min; via AdipoR1
From the text: as §1

PGC-1α = PGC-1α acetylation (acetyl-lysine on immunoprecipitates) in C2C12 myocytes; type: cell-based, mouse; conditions: treatment for 2 hr
Procedure: as §3

[2] = Plasma adiponectin level after intravenous injection of adiponectin; type: in vivo; conditions: 30 μg per 10 g body weight intravenously through inferior vena cava catheter, mice
From the text: as §1

AMPK [3] = test: AMPK phosphorylation in C2C12 myocytes (immunoblotting); type: cell-based, mouse; conditions: C2C12 myocytes, adiponectin 30 μg/ml
Procedure: as §3

- calcium-ion activated Cl- current response (mAdipoR1; control oocytes (no AdipoR1 cRNA), adiponectin 30 μg/ml): not observed
- inward current responses (mAdipoR1; oocytes expressing AdipoR1, holding potential -80 mV, adiponectin 30 μg/ml 30 sec): induced
- intracellular calcium levels by calcium-ion activated Cl- current (mAdipoR1; oocytes injected with AdipoR1 complementary RNA, adiponectin 30 μg/ml): increase
- dose dependence of calcium response (AdipoR1): dose-dependent responses
- intracellular calcium ion concentration (fura-2-based fluorescent imaging) (AdipoR1; adiponectin 30 μg/ml, 1 min): increased
B1: adiponectin: recombinant murine full-length adiponectin, internal ligand of adiponectin receptor 1 (protein, UniProt Q60994 1-247, looked up)
chain: MLLLQALLFLLILPSHAEDDVTTTEELAPALVPPPKGTCAGWMAGIPGHPGHNGTPGRDGRDGTPGEKGEKGDAGLLGPKGETGDVGMTGAEGPRGFPGTPGRKGEPGEAAYVYRSAFSVGLETRVTVPNVPIRFTKIFYNQQNHYDGSTGKFYCNIPGLYYFSYHITVYMKDVKVSLFKKDKAVLFTYDQYQEKNVDQASGSVLLHLEVGDQVWLQVYGDGDHNGLYADNVNDSTFTGFLLYHDTN
modifications: full-length
- expression levels of Ppargc1a in muscle (PGC-1α (Ppargc1a)): increased
- CaMKI phosphorylation (CaMKI, HDAC5): rapid, robust, and transient increase
- HDAC5 phosphorylation (CaMKI, HDAC5): increased
- phosphorylation of AMPK in liver (AMPK [1]; both genotypes (control and muscle-R1KO)): increased
- phosphorylation of AMPK in muscle (AMPK [1]; control littermates): increased
- phosphorylation of CaMKI in skeletal muscle in vivo (CaMKI): significantly increased
- PGC-1α acetylation (PGC-1α): decreased
- plasma adiponectin levels [2]: approximately 30 μg/ml
- phosphorylation of AMPK α-subunits at Thr 172 (AMPK [3]): increased
